Target: SRSF1-RBD (UniProt Q07955 1-203)
Experiment: EMSA

Chain of SRSF1-RBD (Q07955 1-203): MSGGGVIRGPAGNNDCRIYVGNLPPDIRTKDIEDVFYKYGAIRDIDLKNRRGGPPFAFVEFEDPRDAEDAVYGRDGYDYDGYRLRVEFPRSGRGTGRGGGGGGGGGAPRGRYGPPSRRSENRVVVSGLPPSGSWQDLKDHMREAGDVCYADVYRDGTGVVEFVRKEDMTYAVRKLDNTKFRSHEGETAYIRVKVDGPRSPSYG

B1: AdML pre-mRNA (structured_RNA)
RNA: GAGCUCGGUACCCCGUUCGUCCUCACUCUCUUCCGCAUCGCUGUCUGCGAGGGCCAGCUGUUGGGGUGAGUACUCCCUCUCAAAAGCGGGCAUGACUUCUGCCCUCGAGUUAUUAACCCUCACUAAAGGCAGUAGUCAAGGGUUUCCUUGAAGCUUUCGUGCUGACCCUGUCCCUUUUUUUUCCACAGCUGCAGGUCGACGUUGAGGACAAACUCUUCGCGGUCUUUCCAGUACUCUU
binding result: binds

— paper PMC9371905
